Measured values from US20080039419.

T1: synthetic peptide representing the β3 integrin cytoplasmic domain, P05106
T1 chain: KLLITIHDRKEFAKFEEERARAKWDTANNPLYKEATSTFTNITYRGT

T2: synthetic peptide representing the β1 integrin cytoplasmic domain, P05556
T2 chain: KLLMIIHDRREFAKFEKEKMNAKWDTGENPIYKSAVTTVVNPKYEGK


Columns and labels:
[1] = biological target: T1, synthetic peptide representing the β3 …
[2] = biological target: T2, synthetic peptide representing the β1 …

Row | Protein | phosphorylation of the synthetic peptide by recombinant kinase in vitro [1] | phosphorylation of the synthetic peptide by recombinant kinase in vitro [2] | phosphorylation of the synthetic peptide in ILK immune complex kinase assay (91-3 immunoprecipitates of PC3 lysates) [1] | autophosphorylation of ILK in immune complex kinase assay [2] | phosphorylation of the synthetic peptide in ILK immune complex kinase assay (91-3 immunoprecipitates of PC3 lysates) [2]
1 | GST-ILK^232 (GST fusion of ILK amino acid residues 132-451) (protein) YGEMPVDKAKAPLRELLRERAEKMGQNLNRIPYKDTFWKGTTRTRPRNGTLNKHSGIDFKQLNFLTKLNENHSGELWKGRWQGNDIVVKVLKVRDWSTRKSRDFNEECPRLRIFSHPNVLPVLGACQSPPAPHPTLITHWMPYGSLYNVLHEGTNFVVDQSQAVKFALDMARGMAFLHTLEPLIPRHALNSRSVMIDEDMTARISMADVKFSFQCPGRMYAPAWVAPEALQKKPEDTNRRSADMWSFAVLLWELVTREVPFADLSNMEIGMKVALEGLRPTIPPGISPHVCKLMKICMNEDPAKRPKFDMIVPILEKMQD | The results demonstrating phosphorylation of synthetic β peptides by endogenous ILK are identical to those seen with recombinant GST-ILK^232 | The results demonstrating phosphorylation of synthetic β peptides by endogenous ILK are identical to those seen with recombinant GST-ILK^232 | – | – | –
2 | integrin linked kinase (ILK), full length (protein) MDDIFTQCREGNAVAVRLWLDNTENDLNQGDDHGFSPLHWACREGRSAVVEMLIMRGARINVMNRGDDTPLHLAASHGHRDIVQKLLQYKADINAVNEHGNVPLHYACFWGQDQVAEDLVANGALVSICNKYGEMPVDKAKAPLRELLRERAEKMGQNLNRIPYKDTFWKGTTRTRPRNGTLNKHSGIDFKQLNFLTKLNENHSGELWKGRWQGNDIVVKVLKVRDWSTRKSRDFNEECPRLRIFSHPNVLPVLGACQSPPAPHPTLITHWMPYGSLYNVLHEGTNFVVDQSQAVKFALDMARGMAFLHTLEPLIPRHALNSRSVMIDEDMTARISMADVKFSFQCPGRMYAPAWVAPEALQKKPEDTNRRSADMWSFAVLLWELVTREVPFADLSNMEIGMKVALEGLRPTIPPGISPHVCKLMKICMNEDPAKRPKFDMIVPILEKMQDK | – | – | a similar peptide representing the β3 cytoplasmic domain was not detectably labeled by P59ILK | The β1 peptide selectively inhibited autophosphorylation of ILK in these reactions | The β1 peptide was labeled on serine and threonine residues, with approximately equal stoichiometry
